{"source": "patent US12383572B2", "about": "“Administration of an anti-activin-a compound to a subject” (AMGEN INC., priority 2013, dated 2025)", "molecules": {"B1": {"name": "sActRIIB: extracellular domain of human activin type-2B receptor fused to IgG2 Fc; full length SEQ ID NO: 21 (Table 9) (protein, listed as Homo sapiens)", "chain": "ETRWCIYYNANWELERTNQSGLERCEGEQDKRLHCYASWRNSSGTIELVKKGCWLDDFNCYDRQECVATEENPQVYFCCCEGNFCNERFTHLPEAGGPEVTYEPPPTAPTGGGGSVECPPCPAPPVAGPSVFLFPPKPKDTLMISRTPEVTCVVVDVSHEDPEVQFNWYVDGVEVHNAKTKPREEQFNSTFRVVSVLTVVHQDWLNGKEYKCKVSNKGLPAPIEKTISKTKGQPREPQVYTLPPSREEMTKNQVSLTCLVKGFYPSDIAVEWESNGQPENNYKTTPPMLDSDGSFFLYSKLTVDKSRWQQGNVFSCSVMHEALHNHYTQKSLSLSPGK"}}, "key": {"activin-A": {"biological_target": "T1, activin-A (Mus musculus, UniProt Q04998)", "T1 construct": "from tissue; host or cells: serum of inhibin-α knockout (inh-KO) and wild-type mice", "T1 sequence (Q04998 309-424)": "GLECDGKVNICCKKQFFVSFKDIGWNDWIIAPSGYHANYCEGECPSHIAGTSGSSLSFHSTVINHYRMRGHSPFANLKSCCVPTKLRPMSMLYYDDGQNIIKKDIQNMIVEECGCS", "test": "Serum activin-A ELISA in inh-KO mice with established gonadal tumors", "format": "in vivo", "details": "single injection 30 mg/kg SC", "protocol": "Inh-KO mice. 12-week-old female and 8-week-old male inh-KO mice with fully established ovarian or testicular tumors received a single injection of PBS or sActRIIB (30 mg/kg, SC). As a control, age-matched wild-type littermates received a single injection of PBS. Ovarian and testicular organ weights were determined by necropsy 14 days after the injection. All serum samples from ovarian cancer patients and healthy subjects were collected under informed consent and were purchased from Bioreclamation, Inc. The serum samples were diluted in buffer (DY995, R & D Systems) and pretreated overnight at 4° C. with 4 M urea (Sigma) to dissociate any protein bound to activin-A. The samples were then transferred to 96 well plates pre-coated with an activin-A monoclonal antibody. After 2 hr incubation at room temperature and a washing step (0.05% Tween 20 in DPBS), a biotin-labeled activin-A monoclonal antibody was added for 1 hr at room temperature. […] An acidic stopping solution (KPL) was added and the degree of enzymatic turnover of the substrate was determined by wavelength absorbance measurement at 450 nm. The absorbance measured is directly proportional to the concentration of activin-A present. A standard curve of absorbance versus activin-A concentration was used to determine the amount of Activin-A in the test sample. Serum activin-A levels in inh-KO mice were measured by using ELISA."}, "Smad2 signaling": {"tested_on": "Smad2 signaling", "test": "Western blot of phospho-Smad2 in inh-KO tumors", "format": "in vivo, mouse", "details": "inh-KO mice, increase vs WT controls", "protocol": "(§1) Protein extracts were prepared from cell cultures or tissues in T-PER tissue protein extraction reagent (Pierce) containing a mixture of protease inhibitors (Roche). A pool of 50 μg total protein for each group containing equal amounts of protein extract isolated from individual animals was separated by NuPAGE 4-12% Bis-Tris gel (Invitrogen) and transferred to PVDF. The membranes were probed with primary antibodies against total Smad2, p-Smad2 or E-cadherin (1:1000; Cell Signaling), endoglin, osteopontin (1:500; R & D Systems), IGFBP-1, IGFBP-2 (1:500; Abcam) followed by HRP-conjugated secondary antibody (1:2000; Cell Signaling). The membranes were stripped and re-probed with antibody against α-tubulin (1:1000; Cell Signaling)."}, "[1]": {"tested_on": "ovarian and testicular tumors", "test": "Light microscopy (H & E) of inh-KO ovaries and testes", "format": "in vivo, mouse", "excerpt": "Testes and ovaries from inh-KO mice were fixed with Zinc-formalin. Tissue sections were subjected to H & E staining and then examined with a Nikon Eclipse 90i microscope."}, "VEGF": {"tested_on": "VEGF", "test": "Serum VEGF immunoassay in inh-KO mice", "format": "in vivo, mouse", "details": "inh-KO mice with advanced tumors, single dose", "protocol": "(§2) The serum VEGF levels in inh-KO mice were measured by using immunoassay kit (R & D Systems), and the levels of human VEGF and Ang-1 in cell line culture medium were quantified using ELISA kits purchased from Invitrogen (VEGF) and R & D Systems (Ang-1), by following the manufacturers' recommended protocols."}, "[2]": {"tested_on": "endoglin, osteopontin, IGFBP-1, and IGFPB-2", "test": "Western blot of endoglin, osteopontin, IGFBP-1, IGFBP-2 in inh-KO ovarian tumors", "format": "in vivo, mouse", "details": "inh-KO mice", "protocol": "as §1"}, "TOV-21G cancer cells": {"tested_on": "TOV-21G cancer cells", "test": "In vitro proliferation assay (IncuCyte live cell imaging)", "format": "cell-based, human", "details": "increasing concentrations", "protocol": "In vitro growth rates of TOV-21G cancer cells were analyzed by using a real-time live cell imaging system (IncuCyte) following the manufacturer's recommended protocol."}, "[3]": {"tested_on": "TOV-21G, MRC-5, CCD-Lu and THP-1 cell cultures", "test": "VEGF and Ang-1 ELISA of cell culture medium after recombinant activin-A", "format": "cell-based, human", "details": "sActRIIB added with activin-A", "protocol": "as §2"}, "[4]": {"test": "sActRIIB single dose in female Inhα KO mice: survival", "format": "in vivo, mouse", "protocol": "Eleven-to-fourteen-week-old female Inhα KO mice with body weight from 19.41 to 26.82 grams were subcutaneously (SC) injected with either 30 mg/kg sActRIIB or PBS. Age-matched WT littermate control mice were injected with PBS and served as baseline controls. The study ended by necropsy 2 weeks after injections. Two cohorts of mice were used in the study. Eleven-to-thirteen-week-old female Inhα KO mice with body weight from 17.7 to 27.4 grams were SC injected with either 30 mg/kg sAcLRIIB or PBS. Age-matched WT littermate control mice were injected with PBS and served as baseline controls. The withdrawal lasted for 8 weeks. At the end of the withdrawal, the sActRIIB treated mice were divided by balanced body weight into 2 groups (Group 3 and Group 4).\nGroup 2 and Group 3 were euthanized to examine the ovarian tumors. Group 4 received another dose of 30 mg/kg sActRIIB and the mice were euthanized together with the WT mice 4 weeks later (total 12 weeks). Mouse body weights were recorded once per week up to 12 weeks. For necropsy, mice were euthanized in a CO2 chamber. Normal ovaries in WT mice and ovarian tumors in Inhα KO mice were collected and weighed. All results were expressed as the mean±standard error of the mean (SEM). Statistical significance of difference between groups was analyzed using Student's 2-tailed t-test on MS Excel 5.0 software. […]"}}}
{"molecule": "B1", "values": [{"measurement": "duration of activin-A-neutralizing effect", "setting": "activin-A", "result": "persisted throughout the 14-day study period"}, {"measurement": "serum activin-A levels", "setting": "activin-A; within one day after administration", "result": "reduced the elevated activin-A in the inh-KO mice to normal control levels"}, {"measurement": "phospho-Smad2 in the tumor tissues", "setting": "Smad2 signaling", "result": "eliminated this increase in phospho-Smad2"}, {"measurement": "ovarian morphology by light microscopy", "setting": "[1]; female inh-KO mice", "result": "the ovaries were normal in size and contained many recognizable follicles, minimal tumor cell invasion and few hemorrhagic lesions"}, {"measurement": "testicular morphology by light microscopy", "setting": "[1]; male inh-KO mice", "result": "the testes were normal in size and filled with seminiferous tubules, although the number of spermatogonia was less than normal and a few small areas still contained tumor cells"}, {"measurement": "serum VEGF", "setting": "VEGF", "result": "rapidly lowered the elevated VEGF to WT control levels"}, {"measurement": "induction of endoglin, osteopontin, IGFBP-1 and IGFBP-2 proteins", "setting": "[2]", "result": "abolished completely"}, {"measurement": "TOV-21G cell proliferation in vitro", "setting": "TOV-21G cancer cells", "result": "no direct effect on TOV-21G cell proliferation in vitro"}, {"measurement": "activin-A-induced release of angiogenic factors (ELISA)", "setting": "[3]", "result": "blocked completely this activin-A-induced release of angiogenic factors"}, {"measurement": "survival rate at week 8", "setting": "[4]; single dose 30 mg/kg SC", "result": 94, "unit": "%"}, {"measurement": "survival curves, sActRIIB vs. PBS", "setting": "[4]; single dose, chi-square test", "result": "significantly different"}]}
